Four molecules from US20190010247A1 (MINOMIC INTERNATIONAL, published 2019) can be followed below.

For assay [1], the target named is T1, GPC-1 (MIL-38 antigen) expressed by human cancer cell lines DU-145, T-24, PANC-1 and MDA-MB-231 (human, UniProt P35052 24-530).
T1 construct: whole, on cells; also called GPC-1 on the cell surface
T1 sequence (looked up): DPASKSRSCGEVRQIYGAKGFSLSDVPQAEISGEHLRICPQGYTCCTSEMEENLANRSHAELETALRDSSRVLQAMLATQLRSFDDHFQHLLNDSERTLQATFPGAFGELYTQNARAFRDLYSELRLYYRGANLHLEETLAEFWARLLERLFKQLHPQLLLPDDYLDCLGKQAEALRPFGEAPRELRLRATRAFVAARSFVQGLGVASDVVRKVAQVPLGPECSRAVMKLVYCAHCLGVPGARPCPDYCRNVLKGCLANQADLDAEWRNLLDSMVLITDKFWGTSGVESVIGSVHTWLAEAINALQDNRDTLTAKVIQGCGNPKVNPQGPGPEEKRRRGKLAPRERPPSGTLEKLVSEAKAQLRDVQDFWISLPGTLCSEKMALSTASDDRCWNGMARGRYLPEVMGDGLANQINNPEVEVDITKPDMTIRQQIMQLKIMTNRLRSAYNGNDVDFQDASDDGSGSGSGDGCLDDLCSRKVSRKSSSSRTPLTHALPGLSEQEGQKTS
The assay is described as follows: binding to DU-145 cells, graded in Table 4.

For assay [2], the target named is T2, recombinant human GPC-1 (NS0-produced glypican-1 antigen) (human, UniProt P35052 24-530).
T2 construct: Bought recombinant protein; also called recombinant NS0 GPC-1; NS0-produced recombinant GPC-1 antigen
T2 sequence (looked up): T1 sequence (looked up)
The assay is described as follows: western blot, anti-mouse HRP detection. As for the experimental part:
Briefly, after transfer membranes were blocked with 5% skim milk in PBS-Tween (0.1%) for 2 h at room temperature. Primary antibodies (1 μg/ml in 5% skim milk—PBS-Tween (0.1%) were applied and incubated overnight at 4° C. After washing (3×10 min PBS-Tween (0.1%)) membranes were incubated with secondary antibody (1:2000 sheep-anti-mouse HRP-labelled in 5% skim milk—PBS-Tween (0.1%)). After washing (3×10 min PBS-Tween (0.1%)) antigen was detected by using ECL detection kit (Biorad) and imaging with LAS4000 mini (GE Life Science).

In assay [3] the target is T2, recombinant human GPC-1 (NS0-produced …). The assay is described as follows: western blot, three-antibody detection. (A western blot detects proteins with antibodies after separation by electrophoresis.)
Assay [4] has as its target T1, GPC-1 (MIL-38 antigen) expressed by …. The assay is described as follows: flow cytometry on DU-145 cells (FIG. 10). (In general: A flow cytometer gives signals particle by particle.)
Assay [5] deals with T2, recombinant human GPC-1 (NS0-produced …). The assay is described as follows: direct binding ELISA, GPC-1 coated. A general note: ELISA stands for enzyme-linked immunosorbent assay.
Assay [6] concerns the target T1, GPC-1 (MIL-38 antigen) expressed by …. The assay is described as follows: flow cytometry, CY5-labelled scFv on DU-145 cells.

B1: murine MIL-38 monoclonal antibody, AM4 population, clone 1F5 (hybridoma CBA20140026) (antibody, mouse IgG1, kappa)
heavy: QIQLVQSGPELKKPGETVKISCKASGYAFTDYSMNWVKQAPGKGLRWMGWINTETGEPTYTDDFKGRFAFSLETSASTAFLQINNLRNEDTATYFCARHYDYGGFPYWGQGTLVTVSAAKTTPPSVYPLAPGSAAQTNSMVTLGCLVKGYFPEPVTVTWNSGSLSSGVHTFPAVLQSDLYTLSSSVTVPSSTWPSETVTCNVAHPASSTKVDKKIVPRDCGCKPCICTVPEVSSVFIFPPKPKDVLTITLTPKVTCVVVDISKDDPEVQFSWFVDDVEVHTAQTQPREEQFNSTFRSVSELPIMHQDWLNGKEFKCRVNSAAFPAPIEKTISKTKGRPKAPQVYTIPPPKEQMAKDKVSLTCMITDFFPEDITVEWQWNGQPAENYKNTQPIMDTDGSYFVYSKLNVQKSNWEAGNTFTCSVLHEGLHNHHTEKSLSHSPGK
light: DIQMTQSPASLSASVGETVTITCRASGNVHNYLAWYQQKQGKSPQLLVYTAKTLADGVPSRFSGSGSGTQYSLKINSLQPEDFGTYYCQHFWSNPWTFGGGTKLEIKRADAAPTVSIFPPSSEQLTSGGASVVCFLNNFYPKDINVKWKIDGSERQNGVLNSWTDQDSKDSTYSMSSTLTLTKDEYERHNSYTCEATHKTSTSPIVKSFNRNEC
notes: Mouse IgG1 kappa; Leader 1-19 (heavy) and 1-20 (light) are stated and left out; 1F5 is named an AM4 clone; also called AM4 MIL-38; AM4 1F5
In the case of B1, the binding result in assay [1] and in assay [2] was “binds” each time.

B2: chimeric MIL-38 antibody (mouse VH-human CH1-CH3 heavy chain, mouse VK-human CK light chain) (antibody)
heavy: not shown
light: DIQMTQSPASLSASVGETVTITCRASGNVHNYLAWYQQKQGKSPQLLVYTAKTLADGVPSRFSGSGSGTQYSLKINSLQPEDFGTYYCQHFWSNPWTFGGGTKLEIKRTVAAPSVFIFPPSDEQLKSGTASVVCLLNNFYPREAKVQWKVDNALQSGNSQESVTEQDSKDSTYSLSSTLTLSKADYEKHKVYACEVTHQGLSSPVTKSFNRGEC
notes: Human IgG1 kappa constant regions; also called chMIL-38; MIL-38 chimeric antibody
Take B2: the binding result in assay [1] and in assay [3] was “binds” each time.

B3: chimeric MIL-38 DOTA conjugate (antibody, human IgG1, kappa)
heavy: not shown
light: B2 light
modifications: p-SCN-Bn-DOTA conjugated; sites not stated; p-SCN-Bn-DOTA conjugated; 4.3, 4.6 or 7.5 DOTA per MAb for 5, 10 or 20 fold excess; sites not stated
notes: also called chMIL-38 DOTA; DOTA-cMIL-38
Consider B3, for which the binding result in assay [4] and in assay [5] was “binds” in each case.

B4: scFv MIL-38 (scFv)
scFv: QIQLVQSGPELKKPGETVKISCKASGYAFTDYSMNWVKQAPGKGLRWMGWINTETGEPTYTDDFKGRFAFSLETSASTAFLQINNLRNEDTATYFCARHYDYGGFPYWGQGTLVTVSSGGGGSGGGGSGGGGSDIQMTQSPASLSASVGETVTITCRASGNVHNYLAWYQQKQGKSPQLLVYTAKTLADGVPSRFSGSGSGTQYSLKINSLQPEDFGTYYCQHFWSNPWTFGGGTKLEIKHHHHHHC
modifications: CY5 fluorophor label (site not stated)
notes: VH (20-137), gly/ser linker (138-152), VL (153-259), hexa-His tag (260-265), C-terminal cysteine (266); Leader 1-19 is stated and left out; also called MIL-38 scFv; scFv MIL-38 construct
Regarding B4, in assay [6], the binding result is given as “binds”.
